What all share (format): biochemical
The target of series [1] is T1, Sir2p (Saccharomyces cerevisiae, UniProt P06700).
T1 construct: purified recombinant yeast (rSir2p) protein, mouse Sir2 (mSir2α) proteins and vector controls; 6×His; made in house; host or cells: E. coli BL21 (DE3), pET28a
Nature of the series: NAD-dependent deacetylation of di-acetylated H3 peptide by recombinant yeast Sir2p (HPLC). The note with it: for function in the deacetylation of the H3 peptide by Sir2p: 1 mM NAD derivative; for inhibition of the deacetylase activity in a reaction with NAD: not shown. The method, then:
(§1) The typical reaction of Sir2 deacetylase activity was performed in 50 μl of buffer containing 50 mM Tris-HCl [pH 9.0], 4 mM MgCl2, 0.2 mM DTT, variable concentration of cold nicotinamide adenine dinucleotide (NAD) or NAD derivatives (SIGMA®, MO), 5-10 μg of the purified recombinant Sir2 proteins, and 10 μg of the histone H3 N-terminal tail peptide (amino acid 1-20) di-acetylated at positions 9 and 14 (Upstate Biotechnology™, NY). […] To detect the ADP-ribosylation activity, 8 μCi of NAD 5′-[α-^32P]triphosphate (˜1000 Ci/mmol, Amersham Pharmacia Biotech™, NJ) was added to the same reaction containing 1 μM cold NAD. Histone H3 protein (4 μg) (Roche Molecular Biochemicals™, IN) were used for this assay. All reaction mixtures were incubated at room temperature for 1 hr. Trichostatin A and coumermycin A1 (SIGMA™) were prepared in dimethylsulfoxide (DMSO, SIGMA®), and 5 μl of solvent or inhibitor was added to the reactions prior to adding Sir2 proteins.
(§2) After the incubation, the products were precipitated at −20° C. overnight by adding 50 μl of distilled water and 25 μl of 100% trichloroacetic acid (TCA) solution. For high pressure liquid chromatography (HPLC), the precipitates were reconstituted in 5% CH3CN and 0.1% trifluoroacetic acid (TFA) and run in the gradient concentration between 0.05% TFA and 0.043% TFA plus 80% CH3CN on Hewlett Packard Model 1100 HPLC system with 214TP52 column (VYDAC, CA). The chromatograms at the absorbance of 210 nm were digitally recorded and analyzed by Hewlett Packard ChemStation™ system (version A.06.03 [509]). Fractions of samples were collected every 1 min by Gilson™ Fraction Collector Model 203. Peptide sequencing was done by the Applied Biosystems PROCISE® 494 HT protein sequencing system. PTH amino acid chromatograms were recorded and analyzed by the ABI Model 610A2.1 data integration/analysis system.
The experiments employed purified recombinant Sir2p in a reaction with NAD and a peptide of the histone H3 amino-terminal tail (residues 1-20) di-acetylated at lysines 9 and 14. These lysines are hypoacetylated in silenced chromatin and mutations at these positions to glycine greatly reduce silencing in vivo (Thompson, J. S., et al., Nature 369: 245-247 (1994)). The products of a reaction containing 5 μg of recombinant yeast Sir2p (79 pmoles) (FIG. 8a), 10 μg of the H3 peptide (4.2 nmoles) increasing concentrations of NAD were analyzed s by high pressure liquid chromatography (HPLC).

Series [2] concerns di-acetylated H3 peptide (residues 1-20 acetylated on Lys9 and Lys14). Nature of the series: deacetylase activity of recombinant Sir2p and Sir2p core domain mutants on H3 peptide. The settings on record: for NAD-dependent histone H3 deacetylase activity, of wild type activity: 5 μg recombinant protein. How it is done: as §1, §2
(§3) BL21 with SIR2 or the sir2 mutants subcloned into pET28a (NOVAGEN®) were induced with 1 mM IPTG for 1 hr. The recombinant proteins were purified by Nickel-NTA column under native condition. Ribosylation and deacetylation assays were performed using 1 μg of recombinant protein for the ribosylation assay and 5 μg for the deacetylation assay.
A set of mutations in highly conserved residues of the core domain of SIR2 were constructed by site-directed mutagenesis (FIG. 17a) and cloned into vectors, along with the wild type, to allow expression of the recombinant proteins in E. coli or expression of single-copy genes from the native SIR2 promoter in S. cerevisiae. These 6×his (SEQ ID NO: 39) tagged proteins were purified from E. coli by a Ni-NTA column (FIG. 17b) and analyzed for the NAD-dependent histone H3 deacetylase activity in an assay with a di-acetylated H3 peptide (residues 1-20 acetylated on Lys9 and Lys14) and 1 mM NAD. HPLC separation of the reaction products yields five peaks of which 1, 2, a portion of 3 and 4 are deacetylated species of peptide (FIG. 15).

Series [3] has as its system histone H3. As to the kind of experiment: ADP-ribosyltransferase activity of Sir2p core domain mutants. The note with it: histone H3 substrate; relative to wild type. The method, then: as §1
Electron-spray mass spectroscopy (also referred to herein as mass spectroscopy) was done on the PE Sciex Model API365™ system. Matrix assisted laser desorption/ionization (MALDI) mass spectroscopy can also be used. The electron-spray mass spectroscopy data were analyzed by the BioMultiView Program™ (version 1.3.1). To detect the ADP-ribosylated intact H3 protein, the pellets were dissolved in 15 μl of Leammli sample buffer, boiled for 1.5 min and electrophoresed in a 10-20% gradient SDS-PAGE gel. The gel was stained with Coomassie Brilliant Blue to check equal loading of histones, dried, and exposed to KODAK® X-OMAT film. To analyze the ADP-ribosylated H3 peptides, 10 μl of each reaction mixture was spotted on a cellulose TLC plate (EM Science™, NJ). The chromatography was performed for 9-10 hrs in a TLC chamber containing the 65:5:3:2:29 mixture of isobutyric acid, pyridine, acetic acid, butanol and water (Scheidtmann, K. H., et al., J. Virol. 44:116-133 (1982)). The plate was dried and exposed to KODAK® X-OMAT film. The peptide spots were checked by ninhydrin staining.
as §3
The Sir 2 mutant proteins were also analyzed for ADP-ribosyltransferase activity using the histone H3 substrate, (FIG. 17c). […] The same pattern of activities was observed using a peptide of the N-terminal tail of histone H3 (not shown).

Entries after “also recorded” stand apart in the source; their conditions may differ.

T1 sequence (P06700 whole entry): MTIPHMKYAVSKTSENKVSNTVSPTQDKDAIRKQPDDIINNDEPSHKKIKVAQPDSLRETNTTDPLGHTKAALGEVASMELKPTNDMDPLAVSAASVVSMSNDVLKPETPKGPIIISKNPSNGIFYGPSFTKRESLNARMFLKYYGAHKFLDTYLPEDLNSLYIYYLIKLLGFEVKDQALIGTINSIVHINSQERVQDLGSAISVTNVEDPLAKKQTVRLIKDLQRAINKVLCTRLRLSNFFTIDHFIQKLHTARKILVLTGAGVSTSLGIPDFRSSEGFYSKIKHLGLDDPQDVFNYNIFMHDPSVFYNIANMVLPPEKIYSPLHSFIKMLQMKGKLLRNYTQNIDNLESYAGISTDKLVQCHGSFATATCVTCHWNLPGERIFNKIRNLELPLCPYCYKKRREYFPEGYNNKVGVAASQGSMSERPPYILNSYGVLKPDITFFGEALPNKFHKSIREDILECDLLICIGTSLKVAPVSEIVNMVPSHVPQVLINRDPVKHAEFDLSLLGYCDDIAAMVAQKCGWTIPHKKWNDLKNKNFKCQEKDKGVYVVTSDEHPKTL

Consider `NC(=O)C1=CN([C@@H]2O[C@H](COP(=O)(O)OP(=O)(O)OC[C@H]3O[C@@H](n4cnc5c(N)ncnc54)[C@H](O)[C@@H]3O)[C@@H](O)[C@H]2O)C=CC1` [NADH], for which, in series [1], the “function in the deacetylation of the H3 peptide by Sir2p” value (from here on “function in the deacetylation”) was “functioned weakly” and the “inhibition of the deacetylase activity in a reaction with NAD” value is reported as “neither NADH nor NADP significantly inhibited”.
On to `NC(=O)C1=CN([C@@H]2O[C@H](COP(=O)(O)OP(=O)(O)OC[C@H]3O[C@@H](n4cnc5c(N)ncnc54)[C@H](OP(=O)(O)O)[C@@H]3O)[C@@H](O)[C@H]2O)C=CC1` [NADPH], for which the “function in the deacetylation” value in series [1] is “did not function significantly”.
As for `NC(=O)c1ccc[n+]([C@@H]2O[C@H](COP(=O)([O-])OP(=O)(O)OC[C@H]3O[C@@H](n4cnc5c(N)ncnc54)[C@H](OP(=O)(O)O)[C@@H]3O)[C@@H](O)[C@H]2O)c1` [NADP], in series [1], the “function in the deacetylation” value is reported as “did not function significantly” and the “inhibition of the deacetylase activity in a reaction with NAD” value is reported as “neither NADH nor NADP significantly inhibited”.
On to `CC(/C=C/C(=O)NO)=C\[C@@H](C)C(=O)c1ccc(N(C)C)cc1` [TSA, trichostatin A], for which, in series [1] (400 nM), the “inhibition of deacetylation by Sir2p” value is reported as “does not affect; also recorded: totally incapable of inhibiting”.
As for “Sir2p: purified recombinant 6×His-tagged yeast Sir2 protein”, the input peptide deacetylated result in series [2] (areas under HPLC peaks 1, 2 and 4, 1 mM NAD) is listed as “at least 27%”. For the same molecule, the “acetyl lysines at positions 9 and 14 deacetylated” value in series [2] (peak 4, Edmann degradation, in the presence of NAD) is reported as 23-27%.
Turning to “mutant 261: 6×His tagged yeast Sir2p core domain mutant, Thr-261 mutated to alanine”, in series [2] (1 mM NAD), the “NAD-dependent histone H3 deacetylase activity, of wild type activity” value was 17%. In series [3], this molecule gave an ADP-ribosyltransferase activity of 4%.
Turning to “mutant 270: 6×His tagged yeast Sir2p core domain mutant, Gly-270 mutated to alanine”, the “NAD-dependent histone H3 deacetylase activity, of wild type activity” value in series [2] (1 mM NAD) is on record as 80%. This molecule gave an ADP-ribosyltransferase activity in series [3] of 7%.
On to “mutant 271: 6×His tagged yeast Sir2p core domain mutant, Iso-271 mutated to alanine”, for which the “NAD-dependent histone H3 deacetylase activity, of wild type activity” value in series [2] (1 mM NAD) is 36%. For the same molecule, the ADP-ribosyltransferase activity in series [3] is given as 8%.
In the case of “mutant 275: 6×His tagged yeast Sir2p core domain mutant, Arg-275 mutated to alanine”, the “NAD-dependent histone H3 deacetylase activity, of wild type activity” value in series [2] (1 mM NAD) is on record as 67%. In addition, the ADP-ribosyltransferase activity entry in series [3] was “about as active as wild type”.
As to “mutant 345: 6×His tagged yeast Sir2p core domain mutant, Asn-345 mutated to alanine”, the “NAD-dependent histone H3 deacetylase activity, of wild type activity” value in series [2] (1 mM NAD) is “inactive”. The ADP-ribosyltransferase activity entry in series [3] is “completely inactive”.
“mutant 347: 6×His tagged yeast Sir2p core domain mutant, Asp-347 mutated to alanine”: the “NAD-dependent histone H3 deacetylase activity, of wild type activity” value in series [2] (1 mM NAD) was “inactive”. For the same molecule, the ADP-ribosyltransferase activity result in series [3] was “completely inactive”.

For the origin of these results see patent publication US8642284B1, “Methods for identifying agents that alter NAD-dependent deacetylation activity of a SIR2 protein” (Massachusetts Institute of Technology, priority 1999, dated 2014).
